According to article PMC12482441 (Autophagy Reports, 2025):

How the values were obtained:
[1] = target: His-MBP-tagged N. fulvescens Atg17 (N. fulvescens); assay: negative stain EM
negative stain EM = target: the molecule itself; assay: negative stain EM

“His-MBP-tagged N. fulvescens Atg17 (natural protein)” was tested, and the stoichiometry N [1] was 2.

B1: His-MBP-tagged S. cerevisiae Atg17 (natural protein, UniProt Q06410 1-417, looked up)
chain: MNEADVTKFVNNARKTLTDAQLLCSSANLRIVDIKKKLSSWQLSISKLNFLIVGLRQQGKFLYTILKEGIGTKLIQKQWNQAVLVVLVDEMKYWQYEITSKVQRLDGIVNELSISEKDDTDPSKLGDYISRDNVNLLNDKLKEVPVIERQIENIKLQYENMVRKVNKELIDTKLTDVTQKFQSKFGIDNLMETNVAEQFSRELTDLEKDLAEIMNSLTQHFDKTLLLQDKKIDNDEREELFKVVQGDDKELYNIFKTLHEVIDDVDKTILNLGQFLQAKIKEKTELHSEVSEIINDFNRNLEYLLIFKDISNLIDSFKNSCTQDIQTTKELCEFYDNFEESYGNLVLEAKRRKDVANRMKTILKDCEKQLQNLDAQDQEERQNFIAENGTYLPETIWPGKIDDFSSLYTLNYNVKNP
In the case of B1, the “stoichiometry N” value (negative stain EM) is reported as 2.

B2: His-MBP-tagged S. pombe Atg17 (natural protein, UniProt O42651 1-411, looked up)
chain: MELLQQWTQQAKAALTQARQLCGDAHKFNEDAKTDLRNSIKQHQQLKELAKLTASQCTRLDSSTALIKQLLDLVQNYPTFNQLNVLHDRLESSLKRLRDCTLDPALGSEYTNLYAFVDDTALEDLKTRLRGVTDGVWNAFEKLAGLLEEDLCANYHKRLEAVSLDFLPPAYNDTAEELADLLLQVAQHYDQCSEALNIYDTLSDAEKKDLQEVLQSDSNHVPSVLTELRSGLDQTIHYFNAVQSYKSKVDSATSILEALAEELNKNQLTNQRHEAAHELMRAQTGLEIPQLAQELVQLERHYTHFAKAYTALLQEIHRRQTYENCVRSIVDEFVGRLEKEQQAEAKCRIDFFNQYGDYLPQTLWGAVTDPPLHFEIIEHQYTELPNVKVIPDKNDKKSKQREKSSTTASKR
For B2, the “stoichiometry N” value (negative stain EM) was 2.
